The results in this text go back to paper doi:10.1101/2022.12.21.521423 (bioRxiv, 2022).

One assay addresses HA-LRRC37B-ECTO (human, UniProt Q96QE4 28-905). As to the kind of experiment: cell-surface binding assay.
For the next assay, the target named is HA-LRRC37B-LRR-ECTO (human, UniProt Q96QE4 468-841). The experiment in a line: cell-surface binding assay.
Chain of HA-LRRC37B-LRR-ECTO (Q96QE4 468-841): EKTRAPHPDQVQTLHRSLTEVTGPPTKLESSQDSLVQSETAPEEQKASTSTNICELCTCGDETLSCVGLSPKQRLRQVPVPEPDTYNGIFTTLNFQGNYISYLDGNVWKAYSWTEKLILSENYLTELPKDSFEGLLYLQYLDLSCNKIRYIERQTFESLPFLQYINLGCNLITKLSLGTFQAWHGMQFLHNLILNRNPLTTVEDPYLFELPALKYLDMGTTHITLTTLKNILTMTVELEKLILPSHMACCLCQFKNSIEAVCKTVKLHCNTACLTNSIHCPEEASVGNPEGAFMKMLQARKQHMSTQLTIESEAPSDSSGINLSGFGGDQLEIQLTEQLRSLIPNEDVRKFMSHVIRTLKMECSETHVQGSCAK

Chain of HA-LRRC37B-ECTO (Q96QE4 28-905): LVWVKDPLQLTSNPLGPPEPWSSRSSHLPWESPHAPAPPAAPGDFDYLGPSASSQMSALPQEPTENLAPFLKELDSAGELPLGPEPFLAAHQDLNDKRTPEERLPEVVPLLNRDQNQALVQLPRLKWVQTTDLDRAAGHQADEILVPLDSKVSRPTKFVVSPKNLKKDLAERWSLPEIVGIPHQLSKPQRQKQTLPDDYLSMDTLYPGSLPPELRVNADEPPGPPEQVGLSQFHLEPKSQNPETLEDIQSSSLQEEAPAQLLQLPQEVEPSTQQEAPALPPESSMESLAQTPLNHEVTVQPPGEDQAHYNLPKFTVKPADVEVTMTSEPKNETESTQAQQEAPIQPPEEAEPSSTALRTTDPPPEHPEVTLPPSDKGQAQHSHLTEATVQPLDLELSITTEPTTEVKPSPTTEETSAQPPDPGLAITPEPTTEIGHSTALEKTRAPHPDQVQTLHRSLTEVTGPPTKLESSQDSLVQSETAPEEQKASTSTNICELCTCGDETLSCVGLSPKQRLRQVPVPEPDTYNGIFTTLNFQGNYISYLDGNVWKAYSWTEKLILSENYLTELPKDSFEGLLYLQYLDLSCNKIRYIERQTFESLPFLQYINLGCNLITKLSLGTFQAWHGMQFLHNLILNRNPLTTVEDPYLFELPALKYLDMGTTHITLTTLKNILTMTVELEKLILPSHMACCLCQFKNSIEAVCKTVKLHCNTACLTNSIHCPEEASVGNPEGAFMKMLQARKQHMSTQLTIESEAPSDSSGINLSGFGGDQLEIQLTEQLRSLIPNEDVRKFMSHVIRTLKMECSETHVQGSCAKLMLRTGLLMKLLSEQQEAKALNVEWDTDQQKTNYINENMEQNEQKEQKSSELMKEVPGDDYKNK

B1: FGF13A ExonS-biotin (peptide)
peptide: MAAAIASSLIRQKRQAREREKSNACKCVSSPSKGKTSCDKNKLNVFSRVKLFGSKKRRRRRPE
modifications: also: biotin (position not given here)
Regarding B1, the Kd (usually the equilibrium constant for the complex coming apart) in the assay with HA-LRRC37B-ECTO stood at 2.29 ± 1.04 nM; with HA-LRRC37B-LRR-ECTO, 1.18 ± 0.718 nM.
